In US20250313629A1:

Biological target: cynomolgus Lag3 on cells (HEK293F cells transiently transfected with cyno-LAG-3; activated cynomolgus PBMC/T cells) (cynomolgus)
Test: flow cytometry on CD3/CD28-activated cynomolgus PBMC, antibody at 10 ug/ml

## DP47 (human isotype) (antibody)
  percentage of Lag3 positive cells: 9.19%
